B1: Crossveinless-2 (recombinant mouse CV2) (natural protein)
chain: not shown
B2: Twisted gastrulation (recombinant mouse Tsg) (natural protein, UniProt Q9EP52 25-222, looked up)
chain: CNKALCASDVSKCLIQELCQCRPGEGNCPCCKECMLCLGALWDECCDCVGMCNPRNYSDTPPTSKSTVEELHEPIPSLFRALTEGDTQLNWNIVSFPVAEELSHHENLVSFLETVNQLHHQNVSVPSNNVHAPFPSDKERMCTVVYFDDCMSIHQCKISCESMGASKYRWFHNACCECIGPECIDYGSKTVKCMNCMF

The target of one assay is T1, Xenopus Chordin-Myc (Xenopus, UniProt Q91713 20-941).
T1 sequence (looked up): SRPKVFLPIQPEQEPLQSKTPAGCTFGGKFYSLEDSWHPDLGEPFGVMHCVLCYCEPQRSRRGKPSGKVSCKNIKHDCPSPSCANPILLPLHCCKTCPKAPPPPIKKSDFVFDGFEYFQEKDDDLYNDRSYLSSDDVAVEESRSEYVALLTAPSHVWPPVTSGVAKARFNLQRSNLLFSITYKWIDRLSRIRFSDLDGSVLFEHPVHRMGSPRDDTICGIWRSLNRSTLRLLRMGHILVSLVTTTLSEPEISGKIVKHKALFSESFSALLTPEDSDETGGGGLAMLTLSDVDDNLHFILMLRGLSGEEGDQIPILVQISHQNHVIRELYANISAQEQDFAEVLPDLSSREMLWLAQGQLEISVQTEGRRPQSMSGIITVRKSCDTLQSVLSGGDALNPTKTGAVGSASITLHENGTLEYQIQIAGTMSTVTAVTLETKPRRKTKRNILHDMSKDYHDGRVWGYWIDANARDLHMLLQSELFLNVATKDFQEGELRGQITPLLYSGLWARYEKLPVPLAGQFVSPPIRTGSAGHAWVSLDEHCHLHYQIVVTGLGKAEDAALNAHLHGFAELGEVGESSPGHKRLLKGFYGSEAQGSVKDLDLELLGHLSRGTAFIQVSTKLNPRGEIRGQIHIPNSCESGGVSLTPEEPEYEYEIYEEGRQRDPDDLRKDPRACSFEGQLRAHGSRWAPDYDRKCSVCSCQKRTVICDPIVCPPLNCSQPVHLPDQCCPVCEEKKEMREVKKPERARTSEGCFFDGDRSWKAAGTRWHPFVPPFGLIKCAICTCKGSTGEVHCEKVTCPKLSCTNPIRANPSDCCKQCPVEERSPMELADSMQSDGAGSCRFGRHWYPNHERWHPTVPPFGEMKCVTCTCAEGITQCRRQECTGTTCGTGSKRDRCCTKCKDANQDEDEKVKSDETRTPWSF
Nature of the assay: cross-linking.

Assay [1] concerns the target B1. Nature of the assay: co-IP.
The target of assay [2] is B2. In words: cross-linking.

With B1, the binding result with Xenopus Chordin-Myc was “binds”.

With B2, the binding result in assay [1] is given as “binds”.

B3: Bone Morphogenetic Protein 4 (recombinant human BMP4) (ligand, UniProt P12644 293-408, looked up)
chain: SPKHHSQRARKKNKNCRRHSLYVDFSDVGWNDWIVAPPGYQAFYCHGDCPFPLADHLNSTNHAIVQTLVNSVNSSIPKACCVPTELSAISMLYLDEYDKVVLKNYQEMVVEGCGCR
Consider B3, for which the binding result (in the assay with Xenopus Chordin-Myc; in assay [2]) was “binds” each time.

The record behind these values is publication PMC2581521 (Developmental cell, 2008).
